Laboratory results as given in the supplement of paper PMC11908140.

B1: library; numbered along this chain (parent)
chain: MRKPRAAVGSGHRKQAASQEGRQKHAKNNSQAKPSACDGLARQPEEVVLQASVSSYHLFRDVAEVTAFRGSLLSWYDQEKRDLPWRRRAEDEMDLDRRAYAVWVSEVMLQQTQVATVINYYTGWMQKWPTLQDLASASLEEVNQLWAGLGYYSRGRRLQEGARKVVEELGGHMPRTAETLQQLLPGVGRYTAGAIASIAFGQATGVVDGNVARVLCRVRAIGADPSSTLVSQQLWGLAQQLVDPARPGDFNQAAMELGATVCTPQRPLCSQCPVESLCRARQRVEQEQLLASGSLSGSPDVEECAPNTGQCHLCLPPSEPWDQTLGVVNFPRKASRKPPREESSATCVLEQPGALGAQILLVQRPNSGLLAGLWEFPSVTWEPSEQLQRKALLQELQRWAGPLPATHLRHLGEVVHTFSHIKLTYQVYGLALEGQTPVTTVPPGARWLTQEEFHTAAVSTAMKKVFRVYQGQQPGTCMGSKRSQVSSPCSRKKPRMGQQVLDNFFRSHISTDAHSLNSAAQ

Variants of: B1
Assay: 8OG:A repair function score (normalized; synonymous = 0, nonsense = -1) (normalized log-likelihood score); higher = more repair activity (WT-like)
Settings: with 8OG:A DNA repair reporter (GFP) in HEK-293 MUTYH KO cells
Summary of the method: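 GFP+ (repair) and GFP− bins of viable mCherry+ cells were collected at 72 h from MUTYH knockout HEK-293 cells bearing lentiviral MUTYH cDNA NNN codon-scan libraries in 10 pg/ml doxycycline, co-transfected with an 8OG:A GFP repair reporter and mCherry. Tile amplicons were sequenced, and per-tile Rosace fitness scores were normalized to a repair function score anchored on synonymous and nonsense distributions. Synonymous medians were set to 0 and nonsense to -1, with variants under 300 counts per million at the start removed.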
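Further: cells sorted at 72 h after reporter transfection.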

| Variant | 8OG:A repair function score |
| --- | --- |
| MRKPRAAVGSGHRKQAASQEGRQKHAKNNSQAKPSACDGLARQPEEVVLQASVSSYHLFRDVAEVTAFRGSLLSWYDQEKRDLPWRRRAEDEMDLDRRAYAVWVSEVMLQQTQVATVINYYTGWMQKWPTLQDLASASLEEVNQLWAGLGYYSRGRRLQEGARKVVEELGGHMPRTAETLQQLLPGVGRYTAGAIASIAFGQATGVVDGNVARVLCRVRAIGADPSSTLVSQQLWGLAQQLVDPARPGDFNQAAMELGATVCTPQRPLCSQCPVESLCRARQRVEQEQLLASGSLSGSPDVEECAPNTGQCHLCLPPSEPWDQTLGVVNFPRKASRKPPREESSATCVLEQPGALGAQILLVQRPNSGLLAGLWEFPSVTWEPSEQLQRKALLQELQRWAGPLPATHLRHLGEVVHTFSHIKLTYQVYGLALEGQTPVTTVPPGARWLTQEEFHTAAVSTAMKKVFRVYQGQQTGTCMGSKRSQVSSPCSRKKPRMGQQVLDNFFRSHISTDAHSLNSAAQ [P474T] | 0.0285 |
| MRKPRAAVGSGHRKQAASQEGRQKHAKNNSQAKPSACDGLARQPEEVVLQASVSSYHLFRDVAEVTAFRGSLLSWYDQEKRDLPWRRRAEDEMDLDRRAYAVWVSEVMLQQTQVATVINYYTGWMQKWPTLQDLASASLEEVNQLWAGLGYYSRGRRLQEGARKVVEELGGHMPRTAETLQQLLPGVGRYTAGAIASIAFGQATGVVDGNVARVLCRVRAIGADPSSTLVSQQLWGLAQQLVDPARPGDFNQAAMELGATVCTPQRPLCSQCPVESLCRARQRVEQEQLLASGSLSGSPDVEECAPNTGQCHLCLPPSEPWDQTLGVVNFPRKASRKPPREESSATCVLEQPGALGAQILLVQRPNSGLLAGLWEFPSVTWEPSEQLQRKALLQELQRWAGPLPATHLRHLGEVVHTFSHIKLTYQVYGLALEGQTPVTTVPPGARWLTQEEFHTAAVSTAMKKVFRVYQGQQVGTCMGSKRSQVSSPCSRKKPRMGQQVLDNFFRSHISTDAHSLNSAAQ [P474V] | 0.00398 |
| MRKPRAAVGSGHRKQAASQEGRQKHAKNNSQAKPSACDGLARQPEEVVLQASVSSYHLFRDVAEVTAFRGSLLSWYDQEKRDLPWRRRAEDEMDLDRRAYAVWVSEVMLQQTQVATVINYYTGWMQKWPTLQDLASASLEEVNQLWAGLGYYSRGRRLQEGARKVVEELGGHMPRTAETLQQLLPGVGRYTAGAIASIAFGQATGVVDGNVARVLCRVRAIGADPSSTLVSQQLWGLAQQLVDPARPGDFNQAAMELGATVCTPQRPLCSQCPVESLCRARQRVEQEQLLASGSLSGSPDVEECAPNTGQCHLCLPPSEPWDQTLGVVNFPRKASRKPPREESSATCVLEQPGALGAQILLVQRPNSGLLAGLWEFPSVTWEPSEQLQRKALLQELQRWAGPLPATHLRHLGEVVHTFSHIKLTYQVYGLALEGQTPVTTVPPGARWLTQEEFHTAAVSTAMKKVFRVYQGQQYGTCMGSKRSQVSSPCSRKKPRMGQQVLDNFFRSHISTDAHSLNSAAQ [P474Y] | -0.0117 |
| MRKPRAAVGSGHRKQAASQEGRQKHAKNNSQAKPSACDGLARQPEEVVLQASVSSYHLFRDVAEVTAFRGSLLSWYDQEKRDLPWRRRAEDEMDLDRRAYAVWVSEVMLQQTQVATVINYYTGWMQKWPTLQDLASASLEEVNQLWAGLGYYSRGRRLQEGARKVVEELGGHMPRTAETLQQLLPGVGRYTAGAIASIAFGQATGVVDGNVARVLCRVRAIGADPSSTLVSQQLWGLAQQLVDPARPGDFNQAAMELGATVCTPQRPLCSQCPVESLCRARQRVEQEQLLASGSLSGSPDVEECAPNTGQCHLCLPPSEPWDQTLGVVNFPRKASRKPPREESSATCVLEQPGALGAQILLVQRPNSGLLAGLWEFPSVTWEPSEQLQRKALLQELQRWAGPLPATHLRHLGEVVHTFSHIKLTYQVYGLALEGQTPVTTVPPGARWLTQEEFHTAAVSTAMKKVFRVYQGQQWGTCMGSKRSQVSSPCSRKKPRMGQQVLDNFFRSHISTDAHSLNSAAQ [P474W] | -0.0167 |
| MRKPRAAVGSGHRKQAASQEGRQKHAKNNSQAKPSACDGLARQPEEVVLQASVSSYHLFRDVAEVTAFRGSLLSWYDQEKRDLPWRRRAEDEMDLDRRAYAVWVSEVMLQQTQVATVINYYTGWMQKWPTLQDLASASLEEVNQLWAGLGYYSRGRRLQEGARKVVEELGGHMPRTAETLQQLLPGVGRYTAGAIASIAFGQATGVVDGNVARVLCRVRAIGADPSSTLVSQQLWGLAQQLVDPARPGDFNQAAMELGATVCTPQRPLCSQCPVESLCRARQRVEQEQLLASGSLSGSPDVEECAPNTGQCHLCLPPSEPWDQTLGVVNFPRKASRKPPREESSATCVLEQPGALGAQILLVQRPNSGLLAGLWEFPSVTWEPSEQLQRKALLQELQRWAGPLPATHLRHLGEVVHTFSHIKLTYQVYGLALEGQTPVTTVPPGARWLTQEEFHTAAVSTAMKKVFRVYQGQQPDTCMGSKRSQVSSPCSRKKPRMGQQVLDNFFRSHISTDAHSLNSAAQ [G475D] | -0.00652 |
| MRKPRAAVGSGHRKQAASQEGRQKHAKNNSQAKPSACDGLARQPEEVVLQASVSSYHLFRDVAEVTAFRGSLLSWYDQEKRDLPWRRRAEDEMDLDRRAYAVWVSEVMLQQTQVATVINYYTGWMQKWPTLQDLASASLEEVNQLWAGLGYYSRGRRLQEGARKVVEELGGHMPRTAETLQQLLPGVGRYTAGAIASIAFGQATGVVDGNVARVLCRVRAIGADPSSTLVSQQLWGLAQQLVDPARPGDFNQAAMELGATVCTPQRPLCSQCPVESLCRARQRVEQEQLLASGSLSGSPDVEECAPNTGQCHLCLPPSEPWDQTLGVVNFPRKASRKPPREESSATCVLEQPGALGAQILLVQRPNSGLLAGLWEFPSVTWEPSEQLQRKALLQELQRWAGPLPATHLRHLGEVVHTFSHIKLTYQVYGLALEGQTPVTTVPPGARWLTQEEFHTAAVSTAMKKVFRVYQGQQPETCMGSKRSQVSSPCSRKKPRMGQQVLDNFFRSHISTDAHSLNSAAQ [G475E] | -0.00575 |
